# How the values were obtained:
# [1] = target: T1, biotinylated human 20S proteasome (human, UniProt P60900 1-246; P25787 1-234; P25789 1-261; O14818 1-248; P28066 1-241; P25786 …); assay: BLI
# [2] = target: T1, biotinylated human 20S proteasome; assay: BLI; remark: listed apart in the source
Binder,Kd [1] [nM],koff [2] [s⁻¹]
PA26^YF (other) PPKRAALIQNLRDSYTETSSFAVIEEWAAGTLQEIEGIAKAAAEAHGVIRNSTYGRAQAEKSPEQLLGVLQRYQDLCHNVYCQAETIRTVIAIRIPEHKEADNLGVAVQHAVLKIIDELEIKTLGSGEKSGSGGAPTPIGMYALREYLSARSTVEDKLLGSVDAESGKTKGGSQSPSLLLELRQIDADFMLKVELATTHLSTMVRAVINAYLLNWKKLIQPRTGNLSYFT,0.22,0.00026
wild-type PA26 (T. brucei) (natural protein) PPKRAALIQNLRDSYTETSSFAVIEEWAAGTLQEIEGIAKAAAEAHGVIRNSTYGRAQAEKSPEQLLGVLQRYQDLCHNVYCQAETIRTVIAIRIPEHKEEDNLGVAVQHAVLKIIDELEIKTLGSGEKSGSGGAPTPIGMYALREYLSARSTVEDKLLGSVDAESGKTKGGSQSPSLLLELRQIDADFMLKVELATTHLSTMVRAVINAYLLNWKKLIQPRTGSDHMVS,0.1,0.00029
PA26^E102A-Opt5 (other) PPKRAALIQNLRDSYTETSSFAVIEEWAAGTLQEIEGIAKAAAEAHGVIRNSTYGRAQAEKSPEQLLGVLQRYQDLCHNVYCQAETIRTVIAIRIPEHKEADNLGVAVQHAVLKIIDELEIKTLGSGEKSGSGGAPTPIGMYALREYLSARSTVEDKLLGSVDAESGKTKGGSQSPSLLLELRQIDADFMLKVELATTHLSTMVRAVINAYLLNWKKLIQPRTGNLSYYT,–,0.00016

# — paper PMC8907193 (2022)
